The results in this text go back to US20120244164A1 (published 2012).

The target in assay [1] is T1, Human c-Met (human, UniProt P08581 25-1390). The experiment in a line: cell-based or functional assay.
Assay [2] has as its target T2, recombinant human c-Met/Fc chimera (R&D systems) (human).
T2 construct: R&D Systems 358-MT/CF, expressed in NS0 cells; also called hc-Met/Fc; hu c-Met/Fc
As to the kind of experiment: HGF/c-MET competition Alphascreen: 100 pM biotinylated hHGF, 100 pM c-MET/Fc. As for the experimental part: (§1) To this mixture the anti-human Fc conjugated acceptor beads and c-MET/Fc (100 pM final concentration) were added and incubated for 2 hours at RT. Next, streptavidin donor beads were added and the mixture was incubated for 1 additional hour. Fluorescence was measured by reading plates on the EnVision Multilabel Plate Reader using an excitation wavelength of 680 nm and an emission wavelength of 520 nm.
On the technique in general: Alpha assays give light when donor and acceptor beads are brought close together.

For assay [3], the target named is T1, Human c-Met. As to the kind of experiment: cell-based or functional assay. The source holds these as a separate data set.
In assay [4] the target is T2, recombinant human c-Met/Fc chimera (R&D …). The experiment in a line: HGF/c-MET competition Alphascreen; reference 5D5 Fab v2. The protocol:
as §1

Assay [5] has as its target T1, Human c-Met. The experiment in a line: cell-based or functional assay. This is another data set of the same source.
For assay [6], the target named is T2, recombinant human c-Met/Fc chimera (R&D …). The experiment in a line: HGF-competition Alphascreen: biotinylated hHGF, human c-Met/Fc.
The next assay concerns the target T3, cynomolgus c-Met (cynomolgus monkey, UniProt A0M8R7 25-1381 (Papio anubis entry)).
T3 construct: also called cynomolgus monkey c-Met; cyno c-Met
As to the kind of experiment: competition FACS: 0.5 nM biotinylated HGF on BAF3 cells with cynomolgus c-Met. As for the experimental part:
Cells were analyzed on a FACSarray flow cytometer as described in earlier examples.

Assay [7] addresses T1, Human c-Met. The experiment in a line: cell-based or functional assay. The source holds these as a separate data set.
Assay [8] concerns the target T2, recombinant human c-Met/Fc chimera (R&D …). As to the kind of experiment: SPR (ProteOn), c-Met/Fc captured on anti-human IgG(Fc). As for the experimental part:
(§2) Anti-human IgG(Fc) antibody (GE Healthcare) was immobilized on a ProteOn GLC Sensorchip (BioRad) via amine coupling on two ligand lanes at densities of approximately 5300 RU and 2700 RU. […] Regeneration of the surface was performed by an 80 seconds injection of 3M magnesium chloride at 25 μl/min (component of kit BR-1008-39, GE Healthcare).
The experiment was performed as described in Example 5.

In assay [9] the target is T4, recombinant human CTLA4/Fc chimera (R&D Systems) (human, UniProt P16410 37-162, limits assumed).
T4 construct: control protein; not shown: Fc part of a bought protein, not described
As to the kind of experiment: SPR (ProteOn), CTLA4/Fc captured on anti-human IgG(Fc). As for the experimental part:
as §2

T1 sequence (P08581 25-1390 limits assumed): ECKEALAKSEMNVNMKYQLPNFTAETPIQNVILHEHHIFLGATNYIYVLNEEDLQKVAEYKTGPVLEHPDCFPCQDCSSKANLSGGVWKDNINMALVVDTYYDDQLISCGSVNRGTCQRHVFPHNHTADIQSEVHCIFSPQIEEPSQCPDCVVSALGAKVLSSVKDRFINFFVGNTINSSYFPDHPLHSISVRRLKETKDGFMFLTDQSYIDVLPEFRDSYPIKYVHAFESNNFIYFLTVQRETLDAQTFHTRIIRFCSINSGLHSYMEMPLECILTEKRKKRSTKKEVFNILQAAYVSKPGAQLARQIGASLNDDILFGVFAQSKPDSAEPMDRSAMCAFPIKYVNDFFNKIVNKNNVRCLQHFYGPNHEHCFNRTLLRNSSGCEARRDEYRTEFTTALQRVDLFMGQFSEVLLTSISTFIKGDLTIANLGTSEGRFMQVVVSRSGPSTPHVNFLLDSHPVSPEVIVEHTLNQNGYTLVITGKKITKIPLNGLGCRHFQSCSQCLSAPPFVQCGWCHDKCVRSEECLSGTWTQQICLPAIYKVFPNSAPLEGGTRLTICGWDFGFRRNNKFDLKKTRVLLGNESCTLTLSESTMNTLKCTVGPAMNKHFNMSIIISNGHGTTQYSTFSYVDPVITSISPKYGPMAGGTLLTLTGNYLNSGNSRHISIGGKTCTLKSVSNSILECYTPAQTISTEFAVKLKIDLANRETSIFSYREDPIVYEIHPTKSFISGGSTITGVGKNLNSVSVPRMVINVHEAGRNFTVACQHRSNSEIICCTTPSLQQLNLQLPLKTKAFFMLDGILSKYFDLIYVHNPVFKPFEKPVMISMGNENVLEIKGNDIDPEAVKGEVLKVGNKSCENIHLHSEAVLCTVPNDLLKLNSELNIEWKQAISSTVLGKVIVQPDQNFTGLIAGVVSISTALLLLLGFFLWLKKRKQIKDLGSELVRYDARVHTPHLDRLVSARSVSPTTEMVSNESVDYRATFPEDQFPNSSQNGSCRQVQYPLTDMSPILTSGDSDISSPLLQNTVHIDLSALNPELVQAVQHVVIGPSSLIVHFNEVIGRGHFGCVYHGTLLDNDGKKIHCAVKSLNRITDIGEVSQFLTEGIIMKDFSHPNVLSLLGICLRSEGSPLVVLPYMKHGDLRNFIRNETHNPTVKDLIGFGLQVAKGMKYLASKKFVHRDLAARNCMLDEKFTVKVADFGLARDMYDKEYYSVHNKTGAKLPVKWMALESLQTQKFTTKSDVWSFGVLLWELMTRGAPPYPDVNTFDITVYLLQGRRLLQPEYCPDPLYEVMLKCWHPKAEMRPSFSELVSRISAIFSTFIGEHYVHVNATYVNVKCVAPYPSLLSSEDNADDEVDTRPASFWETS
T2 sequence (chain, as listed by the source mutant limits assumed): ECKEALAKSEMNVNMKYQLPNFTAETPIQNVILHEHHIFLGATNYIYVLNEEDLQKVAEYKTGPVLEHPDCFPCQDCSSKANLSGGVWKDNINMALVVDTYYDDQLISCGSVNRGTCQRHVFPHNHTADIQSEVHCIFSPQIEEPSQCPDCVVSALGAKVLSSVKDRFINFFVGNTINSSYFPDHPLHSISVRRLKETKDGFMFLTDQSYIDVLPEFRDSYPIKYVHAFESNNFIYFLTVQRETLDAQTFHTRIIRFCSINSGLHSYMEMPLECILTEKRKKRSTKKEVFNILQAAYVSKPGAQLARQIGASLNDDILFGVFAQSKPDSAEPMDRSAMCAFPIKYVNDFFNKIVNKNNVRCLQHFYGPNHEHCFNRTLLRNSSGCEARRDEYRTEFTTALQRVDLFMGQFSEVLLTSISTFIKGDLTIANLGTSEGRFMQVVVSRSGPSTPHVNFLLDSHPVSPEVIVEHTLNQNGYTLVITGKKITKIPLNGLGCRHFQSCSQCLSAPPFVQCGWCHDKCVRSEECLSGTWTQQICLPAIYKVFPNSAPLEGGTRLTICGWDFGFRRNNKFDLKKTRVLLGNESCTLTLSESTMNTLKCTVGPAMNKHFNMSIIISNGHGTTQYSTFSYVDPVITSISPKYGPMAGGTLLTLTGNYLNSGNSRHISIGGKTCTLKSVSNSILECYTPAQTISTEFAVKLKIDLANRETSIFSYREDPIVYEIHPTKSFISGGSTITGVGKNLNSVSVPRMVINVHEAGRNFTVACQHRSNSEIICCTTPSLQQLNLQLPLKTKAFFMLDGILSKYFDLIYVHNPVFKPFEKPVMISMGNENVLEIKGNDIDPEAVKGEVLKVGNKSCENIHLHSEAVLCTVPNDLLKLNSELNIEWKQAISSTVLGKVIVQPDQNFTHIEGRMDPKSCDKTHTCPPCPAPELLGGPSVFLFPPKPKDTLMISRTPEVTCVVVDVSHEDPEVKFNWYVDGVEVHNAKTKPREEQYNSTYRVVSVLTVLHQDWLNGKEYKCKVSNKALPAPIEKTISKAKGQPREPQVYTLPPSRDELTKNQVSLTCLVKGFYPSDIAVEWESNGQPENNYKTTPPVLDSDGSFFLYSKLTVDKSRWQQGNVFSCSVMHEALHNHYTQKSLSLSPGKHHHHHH
T3 sequence (A0M8R7 25-1381 S170N/I621T limits assumed): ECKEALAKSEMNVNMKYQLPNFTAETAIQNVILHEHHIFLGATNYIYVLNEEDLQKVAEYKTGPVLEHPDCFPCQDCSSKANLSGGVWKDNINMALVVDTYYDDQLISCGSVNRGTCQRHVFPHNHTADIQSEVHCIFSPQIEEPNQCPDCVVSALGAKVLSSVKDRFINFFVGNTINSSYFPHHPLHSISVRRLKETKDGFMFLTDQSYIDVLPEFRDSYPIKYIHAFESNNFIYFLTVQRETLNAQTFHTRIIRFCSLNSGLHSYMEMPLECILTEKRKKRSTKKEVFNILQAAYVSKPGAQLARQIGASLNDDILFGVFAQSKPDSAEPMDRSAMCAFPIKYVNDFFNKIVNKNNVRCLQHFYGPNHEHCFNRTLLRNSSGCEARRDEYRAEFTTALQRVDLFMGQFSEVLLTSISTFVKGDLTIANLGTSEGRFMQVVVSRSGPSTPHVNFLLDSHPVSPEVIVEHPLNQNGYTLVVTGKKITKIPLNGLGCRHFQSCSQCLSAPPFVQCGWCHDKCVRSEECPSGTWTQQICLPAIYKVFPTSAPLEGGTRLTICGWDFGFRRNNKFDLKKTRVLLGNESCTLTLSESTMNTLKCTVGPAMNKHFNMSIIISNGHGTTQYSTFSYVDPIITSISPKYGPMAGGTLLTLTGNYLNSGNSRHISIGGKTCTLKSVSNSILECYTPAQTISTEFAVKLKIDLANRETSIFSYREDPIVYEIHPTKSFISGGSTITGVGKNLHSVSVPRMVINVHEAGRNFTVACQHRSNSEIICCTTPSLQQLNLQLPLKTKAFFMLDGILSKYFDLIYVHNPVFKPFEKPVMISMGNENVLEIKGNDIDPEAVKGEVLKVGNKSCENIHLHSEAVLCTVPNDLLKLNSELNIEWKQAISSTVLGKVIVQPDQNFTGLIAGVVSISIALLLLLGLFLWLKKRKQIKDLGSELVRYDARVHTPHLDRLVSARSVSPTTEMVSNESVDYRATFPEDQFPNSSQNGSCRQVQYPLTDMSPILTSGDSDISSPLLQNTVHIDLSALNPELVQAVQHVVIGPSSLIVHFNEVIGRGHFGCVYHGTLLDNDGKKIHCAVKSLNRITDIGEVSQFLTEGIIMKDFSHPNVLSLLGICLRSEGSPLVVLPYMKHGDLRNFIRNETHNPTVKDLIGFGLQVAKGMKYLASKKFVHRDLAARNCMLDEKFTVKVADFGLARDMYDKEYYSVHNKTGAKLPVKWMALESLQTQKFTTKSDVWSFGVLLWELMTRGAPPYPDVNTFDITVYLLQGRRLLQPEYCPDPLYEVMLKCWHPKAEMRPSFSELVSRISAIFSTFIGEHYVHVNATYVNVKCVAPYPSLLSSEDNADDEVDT
T4 sequence (P16410 37-162 limits assumed, change not shown): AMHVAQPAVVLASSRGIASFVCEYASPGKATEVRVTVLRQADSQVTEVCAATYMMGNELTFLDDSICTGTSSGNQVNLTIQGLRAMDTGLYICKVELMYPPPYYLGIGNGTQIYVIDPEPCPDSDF

B1: A007901219 (A00790105-9GS-Alb23) (bispecific antibody)
chain: DVQLVESGGGLVQPGGSLRLSCAASGFILDYYAIGWFRQAPGKEREGVLCIDASDDITYYADSVKGRFTISRDNSKNTVYLQMNSLRPEDTAVYYCATPIGLSSSCLLEYDYDYWGQGTLVTVSSGGGGSGGGSEVQLLESGGGLVQPGGSLRLSCAASGFTFRSFGMSWVRQAPGKGPEWVSSISGSGSDTLYADSVKGRFTISRDNSKNTLYLQMNSLRPEDTAVYYCTIGGSLSRSSQGTLVTVSS
notes: also called A007901219 (Alb23)
As for B1, the “fold improved potency against 5D5 Fab v2, cMET phosphorylation assay” value with Human c-Met [1] was roughly 2 fold. Further, the IC50 in [2] was determined as 0.066 nM. For the same molecule, in the assay with Human c-Met [3], the “IC50, cMET phosphorylation assay, A549 cells, +HSA” value was 4.2 nM and the “IC50, cMET phosphorylation assay, A549 cells, -HSA” value was found to be 5.41 nM. Further, the “fold improved potency against 5D5 Fab v2” value in [4] is greater than 5 fold.

B2: A007901222 (bispecific antibody)
chain: DVQLVESGGGLVQPGGSLRLSCAASGFILDYYAIGWFRQAPGKEREGVLCIDASDDITYYADSVKGRFTISRDNSKNTVYLQMNSLRPEDTAVYYCATPIGLSSSCLLEYDYDYWGQGTLVTVSSGGGGSGGGSEVQLLESGGGLVQPGGSLRLSCAASGFTFRSFGMSWVRQAPGKGPEWVSSISGSGSDTLYADSVKGRFTISRDNSKNTLYLQMNSLRPEDTAVYYCTIGGSLSRSSQGTLVTVSSA
notes: produced in P. pastoris X33; also called A00790105-9GS-Alb23-A
For the molecule B2, in the assay with Human c-Met [5], the “IC50, c-Met phosphorylation” value came to 3.97 nM and the “IC50, proliferation assay” value is 1.37 nM. Besides, the IC50 in assay [6] came out at 0.072 nM.

B3: 04E09 (C22A/C92S) (SEQ ID NO: 25) tagged with 3xFlag-His6 (VHH)
VHH: EVQLVESGGGLVQPGGSLRLSAAASGFILDYYAIGWFRQAPGKEREGVLCIDASDDITYYADSVKGRFTISRDNAKNTVYLQMNSLKPEDTGVYYSATPIGLSSSCLLEYDYDYWGQGTLVTVSSGAADYKDHDGDYKDHDIDYKDDDDKGAAHHHHHH
Take B3: in the assay with cynomolgus c-Met, the “% inhibition” value worked out at 101% and the IC50 turned out to be 0.49 nM. The “IC50, HGF-dependent c-Met phosphorylation in A549 tumor cells” value with Human c-Met [7] was found to be 3.8 nM. Besides, in assay [8], the Kd turned out to be 0.0234 nM, the off-rate (koff) was 7.9e-05 s⁻¹ and the kon is 3.37e+06 M⁻¹ s⁻¹. Moreover, in [9], the binding result is “no binding”.

As a reminder, the IC50 is the concentration that inhibits the measured activity by half. A word on the % inhibition: it is the drop in the measured response relative to a control, in per cent. Usually Kd stands for the constant that tells how readily two partners part at equilibrium. As a reminder, the koff is the first-order rate constant of dissociation. A word on the kon: it is the second-order rate constant of association.
